Reference: the supplement of paper PMC10201428
± gives the standard deviation of the averaged measurements.

B1: library; a variant is named by its letters at N, in order (parent)
chain: AATGTTGTTGATGCAACCATAAAGTGATATTTAATAATTATTTATAATCAGCAACTTAACCACAAAACAACCATATATTGATATNTCACAAAACAACCATAANTTGATATTTTTGTGAATCGAGTATTTCAGCAAAACTACTGCAGTAAGAA

Legend:
[1] = variants of: B1; assay: relative integration efficiency (T-LR orientation) vs wild-type transposon end (log2 (normalized fold change)); transposon end mutated: left end; higher = more efficient transposition; conditions: with VchCAST RNA-guided transposition machinery (E. coli BL21(DE3) host, lacZ target)
Procedure, shortened: (§1)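 Barcode abundances in input plasmids and in genomic integration junctions were obtained by PCR amplification and Illumina sequencing. These came from E. coli BL21(DE3) co-transformed with a T7-driven effector plasmid and a pUC57 donor carrying 1549 left-end or 1849 right-end transposon variants, then plated with 0.1 mM IPTG at 37°C for 18 h. Relative integration efficiency is the output/input fold change, normalised to reference barcodes and log-transformed.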

[2] = variants of: B1; assay: relative integration efficiency (T-RL orientation) vs wild-type transposon end (log2 (normalized fold change)); transposon end mutated: left end; higher = more efficient transposition; conditions: with VchCAST RNA-guided transposition machinery (E. coli BL21(DE3) host, lacZ target)
Procedure, shortened: as §1

Row | Variant | relative integration efficiency (log2) [1] | relative integration efficiency (log2) [2]
1 | CG A91C A92C | 0.242 ± 0.39 | -0.116 ± 0.2
2 | CG A67T C68G | -0.364 ± 0.41 | -0.543 ± 0.47
3 | CG A64T A65T | 0.0165 ± 0.48 | 0.469 ± 0.084
4 | CG A62C C63A A64C A65C | -0.604 ± 0.18 | -0.324 ± 0.044
5 | CG A69T A70T | -0.797 ± 0.57 | -0.395 ± 0.4
6 | CG A91T A92T A93T C94G | -1.3 ± 1.2 | -1.4 ± 0.69
7 | CG A46T A47T T48A C49G | 0.192 ± 0.37 | 0.00752 ± 0.28
8 | CG A83T | -0.465 ± 0.53 | -0.189 ± 0.057
9 | CG A83G | 0.426 ± 0.3 | 0.00989 ± 0.23
10 | CG A83C | 0.152 ± 0.25 | 0.0829 ± 0.27
11 | CG A95T A96T C97G C98G | -1.79 ± 0.29 | -1.94 ± 0.81
12 | CG A66T A67T | 0.205 ± 0.48 | -0.0368 ± 0.048
13 | CG A65T A66T A67T C68G | -0.641 ± 0.54 | -0.247 ± 0.37
14 | CG A77T T78A | 0.574 ± 0.48 | 0.149 ± 0.12
15 | CG A96C C97A C98A A99C | -1.79 ± 0.72 | -2.25 ± 0.85
16 | CG A54C C55A | 0.298 ± 0.28 | -0.0734 ± 0.078
17 | CG A90T A91T A92T A93T | -0.429 ± 0.24 | -0.557 ± 0.36
18 | CG A83T T84A | -0.352 ± 0.65 | -0.194 ± 0.16
19 | CG A95T A96T | -0.891 ± 0.57 | -0.379 ± 0.28
20 | CG A99C T100G | -1.66 ± 1.1 | -1.87 ± 0.76
21 | CG A47C | -0.251 ± 0.89 | -0.0577 ± 0.11
22 | CG A47G | -0.05 ± 0.31 | -0.131 ± 0.15
23 | CG A47T | 0.0475 ± 0.098 | 0.0568 ± 0.074

Row | Variant | relative integration efficiency (log2) [1] | relative integration efficiency (log2) [2]
24 | CG A54C C55A T56G T57G | -2.12 ± 1.2 | -1.68 ± 0.8
25 | CG A69C | -0.309 ± 0.7 | -0.363 ± 0.1
26 | CG A69G | -0.41 ± 0.78 | -0.422 ± 0.41
27 | CG A69T | -0.153 ± 0.2 | -0.525 ± 0.1
28 | CG A93C C94A A95C A96C | -0.979 ± 1.9 | -1.09 ± 0.56
29 | CG A81C | -0.551 ± 0.4 | -0.479 ± 0.28
30 | CG A81T | -0.4 ± 0.15 | -0.396 ± 0.57
31 | CG A81G | -0.37 ± 0.32 | -0.449 ± 0.27
32 | CG A90T A91T | 0.245 ± 0.23 | -0.308 ± 0.26
33 | CG A93G | -0.13 ± 0.37 | -0.207 ± 0.083
34 | CG A93T | -0.975 ± 0.63 | -0.479 ± 0.33
35 | CG A93C | -0.0609 ± 0.5 | -0.288 ± 0.19
36 | CG A64C A65C A66C A67C | -0.691 ± 0.34 | -0.323 ± 0.18
37 | CG A70T | -0.297 ± 0.68 | -0.12 ± 0.26
38 | CG A70C | 0.268 ± 0.068 | 0.0994 ± 0.073
39 | CG A70G | -0.515 ± 0.21 | -0.664 ± 0.41
40 | CG A95C A96C | -0.693 ± 0.86 | -0.385 ± 0.4
41 | CG A118T A119T | 0.266 ± 0.26 | -0.158 ± 0.014
42 | CG A47T T48A | 0.0225 ± 0.3 | 0.341 ± 0.033
43 | CG A54T C55G T56A T57A | -0.43 ± 0.9 | -0.861 ± 0.54
44 | CG A66C C68A A69C A70C C71A C72T A77T T78G T79A G80T A83C T86A C87A | -2.717 ± 0.015 | -1.87 ± 0.77
45 | CG A67C C68A | -0.165 ± 0.81 | -0.108 ± 0.25
46 | CG A73C T74G A75C T76G | -1.86 ± 0.67 | -2.23 ± 0.73

Row | Variant | relative integration efficiency (log2) [1] | relative integration efficiency (log2) [2]
47 | CG A62T C63G | -0.0229 ± 0.67 | 0.275 ± 0.072
48 | CG A54C | -0.339 ± 0.014 | -0.178 ± 0.022
49 | CG A54T | 0.264 ± 0.087 | 0.224 ± 0.12
50 | CG A54G | 0.358 ± 0.56 | 0.00787 ± 0.0088
51 | CG A99T T100A | -1.17 ± 0.8 | -1.19 ± 0.47
52 | CG A53G | 0.388 ± 0.41 | -0.054 ± 0.011
53 | CG A53T | 0.318 ± 0.24 | 0.0743 ± 0.088
54 | CG A53C | -0.195 ± 0.56 | -0.278 ± 0.078
55 | CG A90C A91C | -0.406 ± 0.87 | -0.15 ± 0.34
56 | CG A46C A47C | -0.43 ± 0.42 | -0.349 ± 0.19
57 | CG A93C C94A | -0.406 ± 0.83 | -0.522 ± 0.41
58 | CG A75C T76G A77C T78G | -2.25 ± 1.6 | -1.8 ± 0.61
59 | CG A65C A66C A67C C68A | -1.01 ± 0.56 | -0.474 ± 0.22
60 | CG A75T T76A | -0.104 ± 0.2 | -0.129 ± 0.13
61 | CG A93T C94G A95T A96T | -2.14 ± 0.41 | -1.82 ± 0.58
62 | CG A53T A54T | -0.0995 ± 0.047 | -0.0854 ± 0.17
63 | CG A46T A47T T48G C49T A50G G51A C52G A53C A54G C55G T56A C61A | -1.93 ± 2 | -1.9 ± 0.78
64 | CG A64T A65T A66T A67T | -0.239 ± 0.35 | -0.0292 ± 0.19
65 | CG A107C T108G | -0.997 ± 1.2 | -1.01 ± 0.6
66 | CG A77C T78G T79G G80T | -2.28 ± 1.1 | -1.57 ± 0.49
67 | CG A44T T45A A46T A47T | 0.462 ± 0.079 | -0.0681 ± 0.078
68 | CG A101T | -0.501 ± 0.29 | -0.599 ± 0.23
69 | CG A101C | -1.67 ± 0.92 | -1.29 ± 0.49

Row | Variant | relative integration efficiency (log2) [1] | relative integration efficiency (log2) [2]
70 | CG A101G | -1.62 ± 1.1 | -1.22 ± 0.47
71 | CG A92C A93C C94A A95C | -1.74 ± 0.33 | -1.09 ± 0.75
72 | CG A70C C71A | -1.75 ± 1.2 | -1.24 ± 0.54
73 | CG A47G T48G C52T A53G C55G T56C T57G A58C C60A A62G A66T A67T | -3.24 ± 2.1 | -2.77 ± 0.78
74 | CG A53C A54C C55A T56G | -0.0934 ± 0.06 | -0.592 ± 0.35
75 | CG A118T | -0.185 ± 0.24 | -0.0188 ± 0.11
76 | CG A118G | -0.0561 ± 0.73 | -0.144 ± 0.097
77 | CG A118C | 0.243 ± 0.42 | -0.0886 ± 0.026
78 | CG A75C T76G | -2.22 ± 0.87 | -1.59 ± 0.54
79 | CG A107C | -0.569 ± 1.1 | -0.425 ± 0.35
80 | CG A107T | -0.794 ± 0.79 | -0.795 ± 0.44
81 | CG A107G | -0.592 ± 0.8 | -0.554 ± 0.26
82 | CG A107C T108G A109C T110G | -2.3 ± 1.2 | -1.64 ± 0.79
83 | CG A58T A59T C60G C61G | -0.383 ± 0.24 | -0.275 ± 0.27
84 | CG A50C G51T C52A A53C | -0.0404 ± 0.5 | -0.0487 ± 0.27
85 | CG A92T | 0.606 ± 0.37 | -0.0452 ± 0.064
86 | CG A92G | -0.495 ± 0.53 | -0.563 ± 0.18
87 | CG A92C | -0.321 ± 0.19 | -0.313 ± 0.19
88 | CG A99G | -0.0966 ± 0.58 | -0.278 ± 0.18
89 | CG A99C | -1.01 ± 0.78 | -1.23 ± 0.65
90 | CG A99T | -1.41 ± 0.62 | -0.877 ± 0.54
91 | CG A65G | 0.108 ± 0.82 | 0.247 ± 0.21
92 | CG A65C | 0.328 ± 0.076 | 0.247 ± 0.051

Row | Variant | relative integration efficiency (log2) [1] | relative integration efficiency (log2) [2]
93 | CG A65T | 0.125 ± 0.051 | 0.0807 ± 0.096
94 | CG A83C T84G | -0.6 ± 0.69 | -0.94 ± 0.4
95 | CG A96T C97G | -0.64 ± 0.43 | -0.723 ± 0.29
96 | CG A44T | 0.138 ± 0.09 | 0.0943 ± 0.032
97 | CG A50C G51T | -0.407 ± 0.67 | -0.196 ± 0.22
98 | CG A118C A119C | 0.178 ± 0.4 | -0.00591 ± 0.078
99 | CG A47T T48A C49G A50T | -1.26 ± 1.6 | -0.735 ± 0.52
100 | CG A46T A47T | 0.446 ± 0.37 | 0.452 ± 0.058
101 | CG A88T C89G | 0.362 ± 0.31 | 0.178 ± 0.048
102 | CG A58C A59C | -0.146 ± 0.33 | -0.0826 ± 0.066
103 | CG A59C C60A C61A A62C | 0.009 ± 0.11 | 0.0247 ± 0.0075
104 | CG A64C A65C | -0.354 ± 0.13 | -0.201 ± 0.15
105 | CG A67C C68A A69C A70C | -0.846 ± 1.2 | -0.531 ± 0.42
106 | CG A46C | -0.118 ± 0.76 | -0.291 ± 0.11
107 | CG A46G | -0.0959 ± 0.59 | -0.0807 ± 0.18
108 | CG A46T | -0.195 ± 0.93 | -0.0773 ± 0.14
109 | CG A99C T100G A101C A102C | -1.07 ± 1.4 | -1.82 ± 0.89
110 | CG A75T T76A A77T T78A | -0.0527 ± 0.32 | -0.453 ± 0.37
111 | CG A62T C63G A64T A65T | 0.238 ± 0.12 | 0.339 ± 0.046
112 | CG A50T G51C C52G A53T | -0.839 ± 1.2 | -0.552 ± 0.39
113 | CG A91G | 0.0207 ± 0.21 | -0.155 ± 0.14
114 | CG A91T | -0.0651 ± 0.68 | -0.101 ± 0.084
115 | CG A91C | -0.299 ± 1.1 | -0.278 ± 0.17
